B1: DYRK1B (parent)
chain: YQGPGTRRLQEVLGVQTGGPGGRR
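Note: lentivirally expressed fusions sorted by FACS into six bins by GFP to DsRed ratio, PSI derived from sequencing read proportions per bin multiplied by bin number.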

The data set covers variants of B1. Description: protein stability index of a GFP-peptide fusion (GPS, HEK-293T) (PSI 1-6); higher = more stable. The settings on record: c terminus: a fixed tail appended.
Regarding YQGPGTRNLQEVLGVQTGGPGGRR [R8N], the protein stability index was found to be 3.45.
As to YQGPGTRSLQEVLGVQTGGPGGRR [R8S], the protein stability index came to 3.73.
Turning to YQGPGTRTLQEVLGVQTGGPGGRR [R8T], the protein stability index came out at 2.97.
Turning to YQGPGTRQLQEVLGVQTGGPGGRR [R8Q], the protein stability index amounted to 3.67.
For the variant YQGPGTRMLQEVLGVQTGGPGGRR [R8M], the protein stability index is 2.35.
In the case of YQGPGTRILQEVLGVQTGGPGGRR [R8I], the protein stability index was 2.75.
Consider YQGPGTRPLQEVLGVQTGGPGGRR [R8P], for which the protein stability index came to 3.49.
In the case of YQGPGTRYLQEVLGVQTGGPGGRR [R8Y], the protein stability index turned out to be 1.91.
Next, YQGPGTRALQEVLGVQTGGPGGRR [R8A]: 3.24; YQGPGTRGLQEVLGVQTGGPGGRR [R8G]: 3.14; YQGPGTRHLQEVLGVQTGGPGGRR [R8H]: 4.21.
Take YQGPGTRCLQEVLGVQTGGPGGRR [R8C]: the protein stability index came to 2.21.
As for YQGPGTRDLQEVLGVQTGGPGGRR [R8D], the protein stability index turned out to be 3.55.
Next, YQGPGTRWLQEVLGVQTGGPGGRR [R8W]: 3.27.
Regarding YQGPGTRLLQEVLGVQTGGPGGRR [R8L], the protein stability index was 1.91.
Turning to YQGPGTRVLQEVLGVQTGGPGGRR [R8V], the protein stability index amounted to 2.66.
With YQGPGTRKLQEVLGVQTGGPGGRR [R8K], the protein stability index was determined as 2.9.
Next, YQGPGTRELQEVLGVQTGGPGGRR [R8E]: 4.51.
Take YQGPGTRRLQAVLGVQTGGPGGRR [E11A]: the protein stability index stood at 2.57.
Turning to YQGPGTRRLQCVLGVQTGGPGGRR [E11C], the protein stability index came to 2.44.
As to YQGPGTRRLQHVLGVQTGGPGGRR [E11H], the protein stability index is 2.43.
Turning to YQGPGTRRLQFVLGVQTGGPGGRR [E11F], the protein stability index was determined as 1.51.
With YQGPGTRRLQIVLGVQTGGPGGRR [E11I], the protein stability index turned out to be 1.97.
Consider YQGPGTRRLQGVLGVQTGGPGGRR [E11G], for which the protein stability index came to 3.78.
Consider YQGPGTRRLQDVLGVQTGGPGGRR [E11D], for which the protein stability index stood at 3.39.
Next, YQGPGTRRLTEVLGVQTGGPGGRR [Q10T]: 3.39.
Next, YQGPGTRRLPEVLGVQTGGPGGRR [Q10P]: 4.21.
Consider YQGPGTRRLNEVLGVQTGGPGGRR [Q10N], for which the protein stability index stood at 3.85.
On to YQGPGTRRLREVLGVQTGGPGGRR [Q10R], for which the protein stability index was found to be 2.91.
YQGPGTRRLAEVLGVQTGGPGGRR [Q10A]: the protein stability index stood at 1.95.
For YQGPGTRRLSEVLGVQTGGPGGRR [Q10S], the protein stability index turned out to be 3.57.
YQGPGTRRLKEVLGVQTGGPGGRR [Q10K]: the protein stability index came to 3.3.
For the variant YQGPGTRRLVEVLGVQTGGPGGRR [Q10V], the protein stability index is 2.52.
With YQGPGTRRLMEVLGVQTGGPGGRR [Q10M] the figure was 2.82; with YQGPGTRRLDEVLGVQTGGPGGRR [Q10D], 3.3; with YQGPGTRRLIEVLGVQTGGPGGRR [Q10I], 2.66.
For the variant YQGPGTRRLYEVLGVQTGGPGGRR [Q10Y], the protein stability index was determined as 2.25.
As to YQGPGTRRLEEVLGVQTGGPGGRR [Q10E], the protein stability index amounted to 3.82.
Turning to YQGPGTRRLGEVLGVQTGGPGGRR [Q10G], the protein stability index was 1.96.
YQGPGTRRLHEVLGVQTGGPGGRR [Q10H]: the protein stability index was found to be 2.98.
Next, YQGPGTRRLFEVLGVQTGGPGGRR [Q10F]: 2.34.
Consider YQGPGTRRLLEVLGVQTGGPGGRR [Q10L], for which the protein stability index turned out to be 2.28.
YQGPGTRRLCEVLGVQTGGPGGRR [Q10C]: the protein stability index came out at 2.72.
Next, YQGPGRRRLQEVLGVQTGGPGGRR [T6R]: 3.51.
As to YQGPGQRRLQEVLGVQTGGPGGRR [T6Q], the protein stability index turned out to be 3.4.
Take YQGPGLRRLQEVLGVQTGGPGGRR [T6L]: the protein stability index is 2.37.
For YQGPGIRRLQEVLGVQTGGPGGRR [T6I], the protein stability index was determined as 2.87.
On to YQGPGVRRLQEVLGVQTGGPGGRR [T6V], for which the protein stability index stood at 3.02.
Next, YQGPGYRRLQEVLGVQTGGPGGRR [T6Y]: 1.77.
YQGPGPRRLQEVLGVQTGGPGGRR [T6P]: the protein stability index came to 3.04.
With YQGPGWRRLQEVLGVQTGGPGGRR [T6W] the figure was 2.17.
On to YQGPGGRRLQEVLGVQTGGPGGRR [T6G], for which the protein stability index is 3.32.
YQGPGNRRLQEVLGVQTGGPGGRR [T6N]: the protein stability index is 2.68.
As for YQGPGKRRLQEVLGVQTGGPGGRR [T6K], the protein stability index amounted to 2.33.
In the case of YQGPGMRRLQEVLGVQTGGPGGRR [T6M], the protein stability index turned out to be 3.28.
Consider YQGPGSRRLQEVLGVQTGGPGGRR [T6S], for which the protein stability index amounted to 2.54.
For the variant YQGPGHRRLQEVLGVQTGGPGGRR [T6H], the protein stability index worked out at 2.67.
Next, YQGPGTRRSQEVLGVQTGGPGGRR [L9S]: 4.65.
On to YQGPGTRRTQEVLGVQTGGPGGRR [L9T], for which the protein stability index is 4.27.
Regarding YQGPGTRRDQEVLGVQTGGPGGRR [L9D], the protein stability index turned out to be 3.94.
YQGPGTRRYQEVLGVQTGGPGGRR [L9Y]: the protein stability index came out at 3.06.
Take YQGPGTRRPQEVLGVQTGGPGGRR [L9P]: the protein stability index was determined as 4.
Regarding YQGPGTRRRQEVLGVQTGGPGGRR [L9R], the protein stability index came to 3.9.
Next, YQGPGTRRNQEVLGVQTGGPGGRR [L9N]: 3.61; YQGPGTRRQQEVLGVQTGGPGGRR [L9Q]: 4.31.
YQGPGTRRVQEVLGVQTGGPGGRR [L9V]: the protein stability index was found to be 3.75.
Consider YQGPGTRRMQEVLGVQTGGPGGRR [L9M], for which the protein stability index is 3.71.
Consider YQGPGTRRHQEVLGVQTGGPGGRR [L9H], for which the protein stability index was determined as 2.81.
With YQGPGTRRCQEVLGVQTGGPGGRR [L9C], the protein stability index was found to be 3.21.
With YQGPGTRRWQEVLGVQTGGPGGRR [L9W], the protein stability index was 1.36.
YQGPGTRRFQEVLGVQTGGPGGRR [L9F]: the protein stability index was 2.67.
Consider YQGPGTRRIQEVLGVQTGGPGGRR [L9I], for which the protein stability index turned out to be 2.97.
For YQGPGTRREQEVLGVQTGGPGGRR [L9E], the protein stability index amounted to 3.79.
Take YQGPGTRRAQEVLGVQTGGPGGRR [L9A]: the protein stability index stood at 4.03.
As for YQGPGTRRKQEVLGVQTGGPGGRR [L9K], the protein stability index was 4.06.
With YQGPGTRRGQEVLGVQTGGPGGRR [L9G] the figure was 4.47; with YQGPGTFRLQEVLGVQTGGPGGRR [R7F], 2.04.
For YQGPGTGRLQEVLGVQTGGPGGRR [R7G], the protein stability index turned out to be 3.37.
Take YQGPGTNRLQEVLGVQTGGPGGRR [R7N]: the protein stability index turned out to be 2.65.
Consider YQGPGTMRLQEVLGVQTGGPGGRR [R7M], for which the protein stability index was determined as 3.21.
Consider YQGPGTARLQEVLGVQTGGPGGRR [R7A], for which the protein stability index stood at 3.68.
With YQGPGTWRLQEVLGVQTGGPGGRR [R7W], the protein stability index was 1.77.
On to YQGPGTTRLQEVLGVQTGGPGGRR [R7T], for which the protein stability index is 3.54.
As for YQGPGTDRLQEVLGVQTGGPGGRR [R7D], the protein stability index stood at 3.7.
On to YQGPGTKRLQEVLGVQTGGPGGRR [R7K], for which the protein stability index is 3.06.
Next, YQGPGTCRLQEVLGVQTGGPGGRR [R7C]: 1.51; YQGPGTHRLQEVLGVQTGGPGGRR [R7H]: 3.42.
Regarding YQGPGTVRLQEVLGVQTGGPGGRR [R7V], the protein stability index worked out at 3.03.
Take YQGPGTYRLQEVLGVQTGGPGGRR [R7Y]: the protein stability index came to 3.1.
Take YQGPGTIRLQEVLGVQTGGPGGRR [R7I]: the protein stability index stood at 3.57.
Consider YQGPGTQRLQEVLGVQTGGPGGRR [R7Q], for which the protein stability index was found to be 3.76.
For YQGPGTPRLQEVLGVQTGGPGGRR [R7P], the protein stability index was 3.5.
Turning to YQGPGTSRLQEVLGVQTGGPGGRR [R7S], the protein stability index amounted to 3.45.
With YQGPGTERLQEVLGVQTGGPGGRR [R7E] the figure was 4.05.

For the origin of these results see the supplement of paper PMC10567573.
